Consider 2 molecules from US20030215838A1.

Assay [1] addresses human zcytor17 and OSMRbeta co-expressed on transfected cells (human). Put plainly: cell-based or functional assay.
Assay [2] deals with human zcytor17, OSMRbeta and WSX-1 co-expressed on transfected cells (human). Put plainly: cell-based or functional assay.
The target in assay [3] is human OSMRbeta, full length, on transfected cells (human). Briefly: flow cytometry; no ligand (0.0 µg/mL, background) on BHK cells with OSMRbeta alone, SA-PE. A general note: In flow cytometry, cells or beads pass a laser one at a time.
For assay [4], the target named is human zcytor17 receptor, full length, on transfected cells (human). Briefly: flow cytometry; no ligand (0.0 µg/mL, background) on BHK cells with zcytor17 alone, SA-PE.
Assay [5] has the same target. Briefly: flow cytometry; no ligand (0.0 ng/mL, background) on BAF3 cells with zcytor17 alone, SA-PE.
Assay [6] addresses human OSMRbeta, full length, on transfected cells (human). Put plainly: flow cytometry; biotinylated zcytor17L at 2.0 µg/mL on BHK cells with OSMRbeta alone, SA-PE.
The target in assay [7] is human zcytor17 receptor, full length, on transfected cells (human). Put plainly: flow cytometry; biotinylated zcytor17L at 2.0 µg/mL on BHK cells with zcytor17 alone, SA-PE.
Assay [8] has as its target human OSMRbeta, full length, on transfected cells (human). Put plainly: flow cytometry; no ligand (0.00 µg/mL, background) on BAF3 cells with OSMRbeta alone, SA-PE.
Assay [9] has as its target human zcytor17 receptor, full length, on transfected cells (human). Briefly: flow cytometry; biotinylated zcytor17L at 1.0 ng/mL on BAF3 cells with zcytor17 alone, SA-PE.
For assay [10] the target is unchanged. Put plainly: flow cytometry; biotinylated zcytor17L at 0.001 µg/mL on BHK cells with zcytor17 alone, SA-PE.
Assay [11] shares this target. Briefly: flow cytometry; biotinylated zcytor17L at 0.010 µg/mL on BHK cells with zcytor17 alone, SA-PE.
Assay [12] has as its target human OSMRbeta, full length, on transfected cells (human). Briefly: flow cytometry; biotinylated zcytor17L at 0.04 µg/mL on BAF3 cells with OSMRbeta alone, SA-PE.
Assay [13] addresses human zcytor17 receptor, full length, on transfected cells (human). Put plainly: flow cytometry; biotinylated zcytor17L at 0.100 µg/mL on BHK cells with zcytor17 alone, SA-PE.
The target of assay [14] is human OSMRbeta, full length, on transfected cells (human). Briefly: flow cytometry; biotinylated zcytor17L at 0.12 µg/mL on BAF3 cells with OSMRbeta alone, SA-PE.
For assay [15] the target is unchanged. Briefly: flow cytometry; biotinylated zcytor17L at 0.37 µg/mL on BAF3 cells with OSMRbeta alone, SA-PE.
Assay [16] has the same target. Put plainly: flow cytometry; biotinylated zcytor17L at 1.11 µg/mL on BAF3 cells with OSMRbeta alone, SA-PE.
Assay [17] concerns the target human zcytor17 receptor, full length, on transfected cells (human). Put plainly: flow cytometry; biotinylated zcytor17L at 10.0 ng/mL on BAF3 cells with zcytor17 alone, SA-PE.
The target of assay [18] is human OSMRbeta, full length, on transfected cells (human). Briefly: flow cytometry; biotinylated zcytor17L at 10.0 µg/mL on BAF3 cells with OSMRbeta alone, SA-PE.
The target is the same in assay [19]. Put plainly: flow cytometry; biotinylated zcytor17L at 3.33 µg/mL on BAF3 cells with OSMRbeta alone, SA-PE.
The target of assay [20] is human zcytor17 receptor, full length, on transfected cells (human). Briefly: flow cytometry; biotinylated zcytor17L at 0.0001 µg/mL on BHK cells with zcytor17 alone, SA-PE.
For assay [21] the target is unchanged. Briefly: flow cytometry; biotinylated zcytor17L at 100.0 ng/mL on BAF3 cells with zcytor17 alone, SA-PE.
For assay [22], the target named is human zcytor17 and OSMRbeta co-expressed on transfected cells (human). Briefly: flow cytometry; no ligand (0.0 µg/mL, background) on BHK cells with zcytor17 + OSMRbeta, SA-PE.
In assay [23] the target is human zcytor17 receptor, full length, on transfected cells (human). Put plainly: flow cytometry; biotinylated zcytor17L at 0.00001 µg/mL on BHK cells with zcytor17 alone, SA-PE.
The target is the same in assay [24]. Put plainly: flow cytometry; biotinylated zcytor17L at 0.000001 µg/mL on BHK cells with zcytor17 alone, SA-PE.
The target of assay [25] is human zcytor17 and OSMRbeta co-expressed on transfected cells (human). Briefly: flow cytometry; biotinylated zcytor17L at 2.0 µg/mL on BHK cells with zcytor17 + OSMRbeta, SA-PE.
Assay [26] has the same target. Briefly: flow cytometry; no ligand (0.00 µg/mL, background) on BAF3 cells with zcytor17 + OSMRbeta, SA-PE.
For assay [27] the target is unchanged. Put plainly: flow cytometry; biotinylated zcytor17L at 0.001 µg/mL on BHK cells with zcytor17 + OSMRbeta, SA-PE.
Assay [28] has the same target. Briefly: flow cytometry; biotinylated zcytor17L at 0.010 µg/mL on BHK cells with zcytor17 + OSMRbeta, SA-PE.
Assay [29] has the same target. Put plainly: flow cytometry; biotinylated zcytor17L at 0.04 µg/mL on BAF3 cells with zcytor17 + OSMRbeta, SA-PE.
The target is the same in assay [30]. Put plainly: flow cytometry; biotinylated zcytor17L at 0.100 µg/mL on BHK cells with zcytor17 + OSMRbeta, SA-PE.
Assay [31] has the same target. Briefly: flow cytometry; biotinylated zcytor17L at 0.12 µg/mL on BAF3 cells with zcytor17 + OSMRbeta, SA-PE.
The target is the same in assay [32]. Briefly: flow cytometry; biotinylated zcytor17L at 0.37 µg/mL on BAF3 cells with zcytor17 + OSMRbeta, SA-PE.
For assay [33] the target is unchanged. Briefly: flow cytometry; biotinylated zcytor17L at 1.11 µg/mL on BAF3 cells with zcytor17 + OSMRbeta, SA-PE.
Assay [34] shares this target. Briefly: flow cytometry; biotinylated zcytor17L at 10.0 µg/mL on BAF3 cells with zcytor17 + OSMRbeta, SA-PE.
Assay [35] shares this target. Put plainly: flow cytometry; biotinylated zcytor17L at 3.33 µg/mL on BAF3 cells with zcytor17 + OSMRbeta, SA-PE.
Assay [36] shares this target. Briefly: flow cytometry; biotinylated zcytor17L at 0.0001 µg/mL on BHK cells with zcytor17 + OSMRbeta, SA-PE.
For assay [37] the target is unchanged. Briefly: flow cytometry; biotinylated zcytor17L at 0.00001 µg/mL on BHK cells with zcytor17 + OSMRbeta, SA-PE.
Assay [38] shares this target. Put plainly: flow cytometry; biotinylated zcytor17L at 0.000001 µg/mL on BHK cells with zcytor17 + OSMRbeta, SA-PE.

On to “human zcytor17lig (untagged, in conditioned media) (ligand)”, for which, in assay [1], the proliferation of BaF3/zcytor17/OSMRbeta cells, Alamar Blue (activated CCRF-CEM and CCRF-HSB2 conditioned media) (fold over background) worked out at 10; the proliferation of BaF3/zcytor17/OSMRbeta cells, Alamar Blue (activated CD3+ selected human cell conditioned media) (fold over background) was 15. Further, in [2], the proliferation of BaF3/zcytor17/WSX-1/OSMRbeta cells, Alamar Blue (activated CCRF-CEM and CCRF-HSB2 conditioned media) (fold over background) turned out to be 10; the proliferation of BaF3/zcytor17/WSX-1/OSMRbeta cells, Alamar Blue (activated CD3+ selected human cell conditioned media) (fold over background) is 15.

B1: biotinylated human zcytor17 ligand (ligand)
chain: LPVRLLRPSDDVQKIVEELQSLSKMLLKDVEEEKGVLVSQNYTLPCLSPDAQPPNNIHSPAIRAYLKTIRQLDNKSVIDEIIEHLDKLIFQDAPETNISVPTDTHECKRFILTISQQFSECMDLALKSLTSGAQQATT
modifications: biotin
For the molecule B1, the mean fluorescent intensity (MFI) in [3] came out at 0; in assay [4], 15; in assay [5], 7; in assay [6], 13; in [7], 3030; in assay [8] it was 11. The mean fluorescent intensity (MFI) in assay [9] was determined as 17; in assay [10] it was 39; in [11], 244; in assay [12] it was 5; in assay [13], 1600; in [14] it was 5. In addition, the mean fluorescent intensity (MFI) in assay [15] came out at 5; in assay [16] it was 5; in assay [17] it was 72; in assay [18], 6; in assay [19] it was 5; in assay [20], 16. Besides, the mean fluorescent intensity (MFI) in assay [21] is 347; in assay [22], 13; in [23] it was 15; in assay [24] it was 14; in assay [25] it was 3780; in [26], 7. The mean fluorescent intensity (MFI) in assay [27] amounted to 53; in assay [28], 328; in [29] it was 247; in [30], 2130; in [31], 364; in [32], 441. Further, the mean fluorescent intensity (MFI) in assay [33] worked out at 489; in [34] it was 531; in assay [35], 508; in assay [36] it was 17; in [37] it was 15; in [38], 14.
